According to the domain aggregation screens of Martell et al. (2025):

Test: soluble fraction after stress (log2 fold change); higher = more stays soluble; pooled small domains, quantitative proteomics
Settings: stress: 50 degC
In short: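 The stress applied to every library was 50°C. These custom libraries of small protein domains were pooled and measured at high throughput with quantitative proteomics as the read-out. Aggregation propensity is expressed as the base-two logarithm of the fold change in how much of each protein remains soluble. The higher the value, the more of that protein stays in solution.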

| Sequence | soluble fraction (log2) |
| --- | --- |
| HMNSVKSPMPGTILGLKVSVGDTVKVGDELLVLESMKMENMINSPIDGTVSKILISEGDSVQHGQELII | 0.215 |
| HMNSVSARRSAAITAISTGRIHSQEDLVQALKKAGYPVTQATASRDIEEIGAVRIRNQKGEMVYAIS | 0.264 |
| HMNTEEITYSRFQQMLEAGEISQVSIESNRILILPSEETGIEKVLYTGIINDPGLVERLNSAGVEFRAPIE | -0.00156 |
| HMNTEFDVPDVVGKTLDEAEFVLKGSNLKRGLIMPVDDPSKAPGTIVRQNPEAGAGNKIRVGDVVDLWVVG | 0.168 |
| HMNTELSPKVWDVVQEFILYRKEIKAPMTEHAVKLLIGQLQKLSSDPDEQIEILRQSIVNGWKGIFSLK | -0.183 |
| HMNTGTTISYSDFRDRVASGTVKEVQISDDRITGVLKNDETFNTVPVGNDSGLTKLLDDNGVTYSGTP | 0.174 |
| HMNTIFSVNGPVVKVKDTKDFSMMEMVYVGEKKLIGEVIGITESFTTIQVYEVTTGLKVGEPVYTTGAPM | -0.38 |
| HMNTIIHPIRLAYVDSGSIKSMAEQAEIDVKILTSEANSQIFWAIGDEKQIDRLYNLISQVDIIQNK | -0.211 |
| HMNTKHVFIIEQDDEKKRLDIFLVEKLQDSRSFLKKGIVEGWVKVNESVVKPNYKLKQKDQITVIIPP | -0.278 |
| HMNTNDFTIGTRVRTTKKGNGSSDGTSNTARSGIEGTITRIIPEAKYPYLVSTTVPMGWYKKDALEK | 0.0875 |
| HMNTPLYLKIREQIFDALRSGRWAANDPLPSETKLASEFEVSQGTIRKAIDDLVAQNILYRHQGRGTFIRR | -0.5 |
| HMNTSSVTVHYQDEAGKSLADTVTLTGKVGETYSSEQKKITGYNFKEVRGNPKGQFTTEAQTVTYVYTQAA | 0.156 |
| HMNTWVEIFRAEDQGQIRDASLVLLAVKVAHRVDMNSSSAPWSLMVPAQDQQRAHHELTTYWQENAH | -1.43 |
| HMNVAELIEGHEAEIAEVLKEFSLLYLMRLADELGEMTKSSSGNGPFQVLKGLVYEEIARRG | -1.09 |
| HMNVAVPTPADKRKVRVMKADINAKLRVNDANGAYAVYEELKEWVTLKGFTEWNDDLSKLSETMGSMKRKV | -0.0289 |
| HMNVDALVGQRGRVTQTFDPGLRLGRVAVGGDDWRAETTTDQPLREGDLVEVVSVESNTLIVRPIA | -0.0828 |
| HMNVDSLIGQTARVIVDINNNDSIGYALVGGQEWTARAENDNDIIPKDTLVEIVGVSGVKLIVRRKE | -0.044 |
| HMNVDSLVGSEARVTAEIDNRKETGTAMVNGQEWTARAESDEEIYPVGTIVEIRKIQGVKLIVSTH | -0.162 |
| HMNVEATAETLLALLKKNGGSLPFGDKSDPEAIQSQLKMSKKTFKKAAGTLFKKKLVRIEDHGIFL | -0.657 |

| Sequence | soluble fraction (log2) |
| --- | --- |
| HMNVEGEVVVPNVIGRTMKDVAVILSDLGLRMEAEGTGVAKSSQPQHGTSVKRGTVVQVRFEPLSVN | 0.141 |
| HMNVEKLREMYPEGTKIILQEMQGESRMAKGLKGTVTHVDDAGQIHMKWENGSSLVLNVEVDTFKKIE | 0.0915 |
| HMNVEVDSIGDDDFLVKVSAGTSTEHRVTLTDAYWEQIWSSSLPKKEIISLSFAFLLEREPNSSIMRT | 0.0604 |
| HMNVNALIGQEGIVIKEINSGSNKIGQVKISGDTWSAVTTNDFTNAIPVGSNVKILKIDGVNLIVEPVY | -0.0724 |
| HMNVNVSFTQLRHKAEHAIQAKNWSEARNLLTLATLMRPTHRNVARRLKAVEQRNRLFRRLLLILTHRKV | -0.295 |
| HMNVPFGFDEVNGKLVKNEEEQAIISEIKSLKNKGLSLRKIAEALNGRGIATKNGKAWTAVQIQRIA | -0.0386 |
| HMNVPLYIMIESAVEQRLLDGTYQVGKMIPTEFELMDEFSVSRETVRKAINLLVQRGKLEKKRGIGTFVAS | -2.92 |
| HMNVSDIENKLNEMLSPLEKKVMVLYLEGKSYVEIGELLGRHTKSVDNALQRVKRKLEIYLKNRK | -1.22 |
| HMNVTIGESIKNVINHYGTPIYSYNPNNQEKYYEFHTNKGVLVVTAIGKKNTGYVTRVSMTY | -1.18 |
| HMNVVDTGTDANYRVKISAVNLNMRLGPSTSYKSKGYITPGNYTIIKTSGDWGKVKETGYWVALKYTSKIN | -1.06 |
| HMNVVINNELVSLMVEAMKDGVSSKSIQEEFEGYKISGKTITKKVLTAHVNKALEVFADMQE | -0.213 |
| HMNYDPEEKITQIRTMLEIHSRIEFNEIITPATRRGEIIIIFLALLHMIKRGYIVVRQHRLFGDITIFARD | -0.152 |
| HMNYKDQISRYFQQAFHIYPKYQTMKNEEGNFTSKIFKDDKMIIEGVGKSKKKAEQDVSRKALIHFNVL | -0.262 |
| HMNYKNAIGQVGSVYVPIPPNREGLGQIEVKVQSRVSTVRAVSDHSERLENRVAVRVIELVDDRTLLVEKL | -0.839 |
| HMNYTSEDIKLASELFFHLLNNRILPANDVLASQYYDNNEIREILENMAEEGGLRIFGTRENLHLVSNGE | -0.432 |
| HMNYYDLLGIPKSATKQQIRKAYRTKAKEFHPDVNGPFNSHMHFLLLKQAYETLMDANMRHVYDMALIS | -1.35 |
| HMPADHYEVLGIARDADAAEVKRAYRRLARESHPDANHGDSGAEVRFKAVSAAYEVLSDPERRARYDRFGH | -0.00211 |
| HMPANVELLRTFTNKTGTKIKARIVAVSDNKVKLIRDDSKKFIVPIDSLSEEDQKYLKDWIANEVGEQ | 0.0498 |
| HMPARTANEEAIRKYLLNHDSITRKETQALLKTGQSAAGRILKEMVENGWLARIGNGRSTGYELR | -0.034 |
